Earlier results in article PMC3321547 (Biochemistry, 2009).

System: DKH960
Settings: folded DKH960, ref [6]

B1: DKH960: folded kinesin heavy chain construct (protein, UniProt P17210 1-960, looked up, fragment)
chain: MSAEREIPAEDSIKVVCRFRPLNDSEEKAGSKFVVKFPNNVEENCISIAGKVYLFDKVFKPNASQEKVYNEAAKSIVTDVLAGYNGTIFAYGQTSSGKTHTMEGVIGDSVKQGIIPRIVNDIFNHIYAMEVNLEFHIKVSYYEIYMDKIRDLLDVSKVNLSVHEDKNRVPYVKGATERFVSSPEDVFEVIEEGKSNRHIAVTNMNEHSSRSHSVFLINVKQENLENQKKLSGKLYLVDLAGSEKVSKTGAEGTVLDEAKNINKSLSALGNVISALADGNKTHIPYRDSKLTRILQESLGGNARTTIVICCSPASFNESETKSTLDFGRRAKTVKNVVCVNEELTAEEWKRRYEKEKEKNARLKGKVEKLEIELARWRAGETVKAEEQINMEDLMEASTPNLEVEAAQTAAAEAALAAQRTALANMSASVAVNEQARLATECERLYQQLDDKDEEINQQSQYAEQLKEQVMEQEELIANARREYETLQSEMARIQQENESAKEEVKEVLQALEELAVNYDQKSQEIDNKNKDIDALNEELQQKQSVFNAASTELQQLKDMSSHQKKRITEMLTNLLRDLGEVGQAIAPGESSIDLKMSALAGTDASKVEEDFTMARLFISKMKTEAKNIAQRCSNMETQQADSNKKISEYEKDLGEYRLLISQHEARMKSLQESMREAENKKRTLEEQIDSLREECAKLKAAEHVSAVNAEEKQRAEELRSMFDSQMDELREAHTRQVSELRDEIAAKQHEMDEMKDVHQKLLLAHQQMTADYEKVRQEDAEKSSELQNIILTNERREQARKDLKGLEDTVAKELQTLHNLRKLFVQDLQQRIRKNVVNEESEEDGGSLAQKQKISFLENNLDQLTKVHKQLVRDNADLRCELPKLEKRLRCTMERVKALETALKEAKEGAMRDRKRYQYEVDRIKEAVRQKHLGRRGPQAQIAKPIRSGQGAIAIRGGGA
maximum extent of inhibition of ADP release: over 50%
